Molecular target: FITC-coupled H3K9me3-S10ph peptide (amino acids 1-19) (UniProt P68431)
Assay: fluorescence polarisation; fluorescence depolarization in solution, purified FITC-coupled H3 1-19 peptides, Varian Carry Eclipse spectrophotometer, as described [40]; fit to a binary binding equilibrium

## MPP8 Chromo domain (M-phase phosphoprotein 8), GST fusion (from UniProt Q99549 58-112) (domain or fragment)
  Kd: > 50 µM
